Measurements as given in US20210221899A1 (published 2021).

T1: canine NGF (canine, UniProt Q29074 110-229 (pig entry), limits assumed)
T1 construct: The protein was secreted from CHO cells and purified; also called cNGF; canine β-NGF
T1 chain: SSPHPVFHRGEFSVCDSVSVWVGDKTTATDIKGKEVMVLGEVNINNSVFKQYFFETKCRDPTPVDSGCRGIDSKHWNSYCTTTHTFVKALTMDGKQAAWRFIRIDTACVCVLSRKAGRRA

T2: human NGF (human, UniProt P01138 122-241)
T2 construct: also called human Nerve Growth Factor; hN
T2 chain: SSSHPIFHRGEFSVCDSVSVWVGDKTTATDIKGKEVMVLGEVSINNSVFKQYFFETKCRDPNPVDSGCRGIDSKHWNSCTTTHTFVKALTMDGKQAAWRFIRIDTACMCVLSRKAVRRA


Tests used:
Assay in all cases: SPR (Biacore T200), 100 nM mAb on NGF chip, similarity to parent mAb
canine NGF = target: T1, canine NGF
How it was run: (§1)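 CDR alanine-scan mutants of the anti-NGF mAb were each run at 100 nM over an NGF-coated Biacore T200 chip. A threshold band was set from the mean response units of four parent-mAb replicates ±3 SD, covering both on- and off-rate phases. The score is the percentage of each mutant's data points falling inside that band.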

rat NGF = target: T3, rat NGF (rat, UniProt P25427 122-241)
T3 construct: also called rN
T3 sequence (P25427 122-241 limits assumed): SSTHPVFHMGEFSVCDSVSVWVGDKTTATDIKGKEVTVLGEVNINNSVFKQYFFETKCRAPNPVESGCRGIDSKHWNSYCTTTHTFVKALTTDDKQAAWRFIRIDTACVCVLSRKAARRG
How it was run: as §1

human NGF = target: T2, human NGF
How it was run: as §1

Binder | Percent Similarity Score (KD on cN) (canine NGF) [%] | Percent Similarity Score (KD on rN) (rat NGF) [%] | Percent Similarity Score (KD on hN) (human NGF) [%]
can9L12VL_L32A (antibody, V domains shown) VH: EVQLVESGGDLVKPGGSLRLSCVASGFTFSSHGMHWVRQSPGKGLQWVAVINSGGSSTYYTDAVKGRFTISRDNAKNTVYLQMNSLRAEDTAMYYCAKESVGGWEQLVGPHFDYWGQGTLVIVSS VL: QSVLTQPTSVSGSLGQRVTISCSGSTNNIGIAGASWYQLFPGKAPKLLVYGNGNRPSGVPDRFSGADSGDSVTLTITGLQAEDEADYYCQSFDTTLGAHVFGGGTHLTVL | 4.4 | 1.7 | 1.5
can9L12VL_V100A (antibody, V domains shown) VH: EVQLVESGGDLVKPGGSLRLSCVASGFTFSSHGMHWVRQSPGKGLQWVAVINSGGSSTYYTDAVKGRFTISRDNAKNTVYLQMNSLRAEDTAMYYCAKESVGGWEQLVGPHFDYWGQGTLVIVSS VL: QSVLTQPTSVSGSLGQRVTISCSGSTNNIGILGASWYQLFPGKAPKLLVYGNGNRPSGVPDRFSGADSGDSVTLTITGLQAEDEADYYCQSFDTTLGAHAFGGGTHLTVL | 58.2 | 20.2 | 15.7
can9L12VL_N28A (antibody, V domains shown) VH: EVQLVESGGDLVKPGGSLRLSCVASGFTFSSHGMHWVRQSPGKGLQWVAVINSGGSSTYYTDAVKGRFTISRDNAKNTVYLQMNSLRAEDTAMYYCAKESVGGWEQLVGPHFDYWGQGTLVIVSS VL: QSVLTQPTSVSGSLGQRVTISCSGSTNAIGILGASWYQLFPGKAPKLLVYGNGNRPSGVPDRFSGADSGDSVTLTITGLQAEDEADYYCQSFDTTLGAHVFGGGTHLTVL | 6.6 | 2.5 | 2.1
can9L12VL_T94A (antibody, V domains shown) VH: EVQLVESGGDLVKPGGSLRLSCVASGFTFSSHGMHWVRQSPGKGLQWVAVINSGGSSTYYTDAVKGRFTISRDNAKNTVYLQMNSLRAEDTAMYYCAKESVGGWEQLVGPHFDYWGQGTLVIVSS VL: QSVLTQPTSVSGSLGQRVTISCSGSTNNIGILGASWYQLFPGKAPKLLVYGNGNRPSGVPDRFSGADSGDSVTLTITGLQAEDEADYYCQSFDATLGAHVFGGGTHLTVL | 100 | 40 | 52.5
can9L12VL_S91A (antibody, V domains shown) VH: EVQLVESGGDLVKPGGSLRLSCVASGFTFSSHGMHWVRQSPGKGLQWVAVINSGGSSTYYTDAVKGRFTISRDNAKNTVYLQMNSLRAEDTAMYYCAKESVGGWEQLVGPHFDYWGQGTLVIVSS VL: QSVLTQPTSVSGSLGQRVTISCSGSTNNIGILGASWYQLFPGKAPKLLVYGNGNRPSGVPDRFSGADSGDSVTLTITGLQAEDEADYYCQAFDTTLGAHVFGGGTHLTVL | 39.3 | 14.5 | 11.6
can9L12VL_N52A (antibody, V domains shown) VH: EVQLVESGGDLVKPGGSLRLSCVASGFTFSSHGMHWVRQSPGKGLQWVAVINSGGSSTYYTDAVKGRFTISRDNAKNTVYLQMNSLRAEDTAMYYCAKESVGGWEQLVGPHFDYWGQGTLVIVSS VL: QSVLTQPTSVSGSLGQRVTISCSGSTNNIGILGASWYQLFPGKAPKLLVYGAGNRPSGVPDRFSGADSGDSVTLTITGLQAEDEADYYCQSFDTTLGAHVFGGGTHLTVL | 100 | 100 | 100
can9L12VL_T95A (antibody, V domains shown) VH: EVQLVESGGDLVKPGGSLRLSCVASGFTFSSHGMHWVRQSPGKGLQWVAVINSGGSSTYYTDAVKGRFTISRDNAKNTVYLQMNSLRAEDTAMYYCAKESVGGWEQLVGPHFDYWGQGTLVIVSS VL: QSVLTQPTSVSGSLGQRVTISCSGSTNNIGILGASWYQLFPGKAPKLLVYGNGNRPSGVPDRFSGADSGDSVTLTITGLQAEDEADYYCQSFDTALGAHVFGGGTHLTVL | 100 | 99.9 | 100
can9L12VL_L96A (antibody, V domains shown) VH: EVQLVESGGDLVKPGGSLRLSCVASGFTFSSHGMHWVRQSPGKGLQWVAVINSGGSSTYYTDAVKGRFTISRDNAKNTVYLQMNSLRAEDTAMYYCAKESVGGWEQLVGPHFDYWGQGTLVIVSS VL: QSVLTQPTSVSGSLGQRVTISCSGSTNNIGILGASWYQLFPGKAPKLLVYGNGNRPSGVPDRFSGADSGDSVTLTITGLQAEDEADYYCQSFDTTAGAHVFGGGTHLTVL | 97 | 37 | 34.2
can9L12VL_T26A (antibody, V domains shown) VH: EVQLVESGGDLVKPGGSLRLSCVASGFTFSSHGMHWVRQSPGKGLQWVAVINSGGSSTYYTDAVKGRFTISRDNAKNTVYLQMNSLRAEDTAMYYCAKESVGGWEQLVGPHFDYWGQGTLVIVSS VL: QSVLTQPTSVSGSLGQRVTISCSGSANNIGILGASWYQLFPGKAPKLLVYGNGNRPSGVPDRFSGADSGDSVTLTITGLQAEDEADYYCQSFDTTLGAHVFGGGTHLTVL | 100 | 99.2 | 100
can9L12VL_N27A (antibody, V domains shown) VH: EVQLVESGGDLVKPGGSLRLSCVASGFTFSSHGMHWVRQSPGKGLQWVAVINSGGSSTYYTDAVKGRFTISRDNAKNTVYLQMNSLRAEDTAMYYCAKESVGGWEQLVGPHFDYWGQGTLVIVSS VL: QSVLTQPTSVSGSLGQRVTISCSGSTANIGILGASWYQLFPGKAPKLLVYGNGNRPSGVPDRFSGADSGDSVTLTITGLQAEDEADYYCQSFDTTLGAHVFGGGTHLTVL | 100 | 99.9 | 100
can9L12VL_O90A (antibody, V domains shown) VH: EVQLVESGGDLVKPGGSLRLSCVASGFTFSSHGMHWVRQSPGKGLQWVAVINSGGSSTYYTDAVKGRFTISRDNAKNTVYLQMNSLRAEDTAMYYCAKESVGGWEQLVGPHFDYWGQGTLVIVSS VL: QSVLTQPTSVSGSLGQRVTISCSGSTNNIGILGASWYQLFPGKAPKLLVYGNGNRPSGVPDRFSGADSGDSVTLTITGLQAEDEADYYCASFDTTLGAHVFGGGTHLTVL | 79.2 | 24.2 | 19.3
can48L2VH_F113A (antibody, V domains shown, CDR scanning mutant of ZTS-842 (48L2)) VH: EVQLVESGGDLVKPGGSLRLSCVASGFTFSTYGINWVRQAPGKGLQWVAYISSGGSSTYYADPVKGRFTISRDDAKNMLYLQMNSLRAEDTAIYYCAGSRYTYAYGGGYEFHAWGQGTLVTVSS VL: QAVLNQPASVSGALGQKVTISCSGSTMDIDIFGVSWYQQLPGKAPKLLVDSDGDRPSGIPDRFSGSRSGNSGTLTITGLQAEDEADYHCQSGDSTLGALAIFGGGTHVTVL | 33.7 | 32.2 | 98.5
can48L2VH_I51A (antibody, V domains shown, CDR scanning mutant of ZTS-842 (48L2)) VH: EVQLVESGGDLVKPGGSLRLSCVASGFTFSTYGINWVRQAPGKGLQWVAYASSGGSSTYYADPVKGRFTISRDDAKNMLYLQMNSLRAEDTAIYYCAGSRYTYAYGGGYEFHFWGQGTLVTVSS VL: QAVLNQPASVSGALGQKVTISCSGSTMDIDIFGVSWYQQLPGKAPKLLVDSDGDRPSGIPDRFSGSRSGNSGTLTITGLQAEDEADYHCQSGDSTLGALAIFGGGTHVTVL | 24.2 | 37.2 | 81.8
can48L2VH_G54A (antibody, V domains shown, CDR scanning mutant of ZTS-842 (48L2)) VH: EVQLVESGGDLVKPGGSLRLSCVASGFTFSTYGINWVRQAPGKGLQWVAYISSAGSSTYYADPVKGRFTISRDDAKNMLYLQMNSLRAEDTAIYYCAGSRYTYAYGGGYEFHFWGQGTLVTVSS VL: QAVLNQPASVSGALGQKVTISCSGSTMDIDIFGVSWYQQLPGKAPKLLVDSDGDRPSGIPDRFSGSRSGNSGTLTITGLQAEDEADYHCQSGDSTLGALAIFGGGTHVTVL | 98.1 | 99.3 | 100
can48L2VH_H112A (antibody, V domains shown, CDR scanning mutant of ZTS-842 (48L2)) VH: EVQLVESGGDLVKPGGSLRLSCVASGFTFSTYGINWVRQAPGKGLQWVAYISSGGSSTYYADPVKGRFTISRDDAKNMLYLQMNSLRAEDTAIYYCAGSRYTYAYGGGYEFAFWGQGTLVTVSS VL: QAVLNQPASVSGALGQKVTISCSGSTMDIDIFGVSWYQQLPGKAPKLLVDSDGDRPSGIPDRFSGSRSGNSGTLTITGLQAEDEADYHCQSGDSTLGALAIFGGGTHVTVL | 40.3 | 98.5 | 51.2
can48L2VH_G55A (antibody, V domains shown, CDR scanning mutant of ZTS-842 (48L2)) VH: EVQLVESGGDLVKPGGSLRLSCVASGFTFSTYGINWVRQAPGKGLQWVAYISSGASSTYYADPVKGRFTISRDDAKNMLYLQMNSLRAEDTAIYYCAGSRYTYAYGGGYEFHFWGQGTLVTVSS VL: QAVLNQPASVSGALGQKVTISCSGSTMDIDIFGVSWYQQLPGKAPKLLVDSDGDRPSGIPDRFSGSRSGNSGTLTITGLQAEDEADYHCQSGDSTLGALAIFGGGTHVTVL | 99.3 | 99.7 | 100
